Assay results as given in patent US20220185898A1 (Alector, published 2022).
Where a chain is given by its changes, count along the chain named. Each block holds one binder with its values, some of them ahead of it.

Legend:
[1] = target: T1, human Sortilin Fc fusion protein (human, UniProt Q99523 78-755); test: ForteBio, avid;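 further: whole IgG captured on AHQ sensors, then contacted with Sortilin Fc fusion antigen at 100 nM, followed by an off-rate phase in buffer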
T1 construct: whole entry named; also called hSort-Fc
Method: (§1) The affinity for the Sortilin antibodies was determined by measuring their KD by ForteBio. […] Briefly, ForteBio affinity measurements were performed by loading IgGs on-line onto AHQ sensors. Sensors were equilibrated off-line in assay buffer for 30 min and then monitored on-line for 60 seconds for baseline establishment. For avid binding measurement, sensors with loaded IgGs were exposed to 100 nM antigen (human or mouse Sortilin Fc fusion) for 3, afterwards they were transferred to assay buffer for 3 min for off-rate measurement.
(§2) The binding affinity of each anti-Sortilin antibody was determined by measuring their KD by ForteBio or MSD-SET at room temperature. […] Briefly, ForteBio affinity measurements were performed by loading IgGs on-line onto AHQ sensors. Sensors were equilibrated off-line in assay buffer for 30 min and then monitored on-line for 60 seconds for baseline establishment. Sensors with loaded IgGs were exposed to 100 nM antigen for 5 minutes, then transferred to assay buffer for 5 min for off-rate measurement. Kinetics were analyzed using the 1:1 binding model.

[2] = target: T2, mouse Sortilin expressed on 293 / HEK293T cells (mouse, UniProt Q6PHU5 74-825); test: FACS, 293 cells;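 further: antibodies at 10 µg/ml bound to cells for 1 h on ice, detected with PE-labelled anti-human secondary antibody by flow cytometry, reported as mean fluorescence intensity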
T2 construct: full-length recombinant mouse Sortilin; also called mSort; msSort
Method: (§3) Cells were harvested, plated at 10⁵/ml in a 96 well plate, washed, and incubated in 100 μl PBS containing 10 μg/ml Mab and 2% FBS for 1 hour in ice. Cells were then washed twice and incubated in 100 μl PBS+2% FBS containing 5 μg/ml PE-conjugated anti-human secondary antibody for 30 minutes in ice. Cells were washed twice in cold PBS and data was acquired on a BD FACS Canto. Data analysis and calculation of MFI values was performed with FlowJo (TreeStar) software version 10.0.7.

[3] = target: T3, human Sortilin expressed on 293 / HEK293T cells (human, UniProt Q99523 78-830); test: FACS, 293 cells;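 further: antibodies at 10 µg/ml bound to cells for 1 h on ice, detected with PE-labelled anti-human secondary antibody by flow cytometry, reported as mean fluorescence intensity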
T3 construct: full-length recombinant human Sortilin; also called hSort; SORT1
Method: as §3

[4] = target: T4, mouse Sortilin Fc fusion protein (mouse; human, UniProt Q6PHU5 74-754); test: ForteBio, avid;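 further: whole IgG captured on AHQ sensors, then contacted with Sortilin Fc fusion antigen at 100 nM, followed by an off-rate phase in buffer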
T4 construct: whole entry named; also called mSort-Fc
Method: as §1, §2

B1: S-40 (antibody, V domains shown)
VH: not shown
VL: EIVMTQSPATLSLSPGERATLSCRASQSVSSYLAWYQQKPGQAPRLLIYDASNRATGIPARFSGSGSGTDFTLTISSLEPEDFAVYYCQQRSALPFTFGGGTKVEIK
notes: IgG
Kd [1]: 2.43 nM | MFI [2]: 2630 | MFI [3]: 7410

B2: S-12 (antibody, V domains shown)
VH: QVQLVQSGAEVKKPGASVKVSCKASGYTFTSYGISWVRQAPGQGLEWMGWISAYNGNTNYAQKLQGRVTMTTDTSTSTAYMELRSLRSDDTAVYYCARDLPKYKWGWFDPWGQGTLVTVSS
VL: not shown
notes: IgG
Kd [1]: 9.35 nM | MFI [2]: 18800 | MFI [3]: 9760

B3: S-74 (antibody, V domains shown)
VH: QVQLQESGPGLVKPSQTLSLTCTVSGGSISSGTYYWSWIRQHPGKGLEWIGYIYYSGSTYYNPSLKSRVTISVDTSKNQFSLKLSSVTAADTAVYYCARGVGRYRVADYWGQGTLVTVSS
VL: EIVMTQSPATLSLSPGERATLSCRASQSVSSYLAWYQQKPGQAPRLLIYDSSNRATGIPARFSGSGSGTDFTLTISSLEPEDFAVYYCQQETNMPPITFGGGTKVEIK
notes: IgG
Kd [1]: 3.05 nM | MFI [2]: 7300 | MFI [3]: 9210

B5: S-26 (antibody, V domains shown)
VH: EVQLVESGGGLVKPGGSLRLSCAASGFTFSSYSMNWVRQAPGKGLEWVSSISSSSSYIYYADSVKGRFTISRDNAKNSLYLQMNSLRAEDTAVYYCARDRLGRGYKWNWFDPWGQGTLVTVSS
VL: DIQMTQSPSSVSASVGDRVTITCRASQGIDSWLAWYQQKPGKAPKLLIYAASSLQSGVPSRFSGSGSGTDFTLTISSLQPEDFATYYCQQGNSLPPITFGGGTKVEIK
notes: IgG
Kd [1]: 2.88 nM | MFI [2]: 20900 | MFI [3]: 9020

B7: S-64 (antibody, V domains shown)
VH: QVQLQESGPGLVKPSETLSLTCAVSGYSISSGYYWGWIRQPPGKGLEWIGSIYHSGSTYYNPSLKSRVTISVDTSKNQFSLKLSSVTAADTAVYYCARAEHRGPRYFDLWGRGTLVTVSS
VL: DIQMTQSPSSLSASVGDRVTITCRASQSINSYLNWYQQKPGKAPKLLIYAASSLQSGVPSRFSGSGSGTDFTLTISSLQPEDFATYYCQQLDSTPITFGGGTKVEIK
notes: IgG
Kd [4]: 24.2 nM | MFI [3]: 7930

B8: S-16 (antibody, V domains shown)
VH: QVQLVQSGAEVKKPGSSVKVSCKASGGTFSSYAISWVRQAPGQGLEWMGGIIPIFGTANYAQKFQGRVTITADESTSTAYMELSSLRSEDTAVYYCARSPYSGTRDFDLWGRGTLVTVSS
VL: B7 VL with L11V, S28G, N30S, Y32W, N34A, S53N, L91G, D92N, T94Y
notes: IgG
Kd [1]: 3.8 nM | MFI [3]: 6280

B9: S-6 (antibody, V domains shown)
VH: not shown
VL: EIVMTQSPATLSVSPGERATLSCRASQSVSSNLAWYQQKPGQAPRLLIYGASTRATGIPARFSGSGSGTEFTLTISSLQSEDFAVYYCQQVANYPRTFGGGTKVEIK
notes: IgG; also called S-06
MFI [2]: 25600 | MFI [3]: 11100

Now from value to binder:

Kd [1]: 4.4 nM | MFI [2]: 15400 | MFI [3]: 9240
B4: S-84 (antibody, V domains shown)
VH: QLQLQESGPGLVKPSETLSLTCTVSGGSISSSSYYWGWIRQPPGKGLEWIGSISYSGSTYYNPSLKSRVTISVDTSKNQFSLKLSSVTAADTAVYYCARGGTTWLVADVWGQGTMVTVSS
VL: not shown
notes: IgG

Kd [1]: 2.2 nM | MFI [2]: 16600 | MFI [3]: 8940
B6: S-81 (antibody, V domains shown)
VH: QLQLQESGPGLVKPSETLSLTCTVSGGSISSSSYYWGWIRQPPGKGLEWIGSIYYSGSTYYNPSLKSRVTISVDTSKNQFSLKLSSVTAADTAVYYCARERWDLGHGMDVWGQGTTVTVSS
VL: not shown
notes: IgG

Kd [1]: 1.79 nM | MFI [3]: 9300
B10: S-83 (antibody, V domains shown)
VH: QLQLQESGPGLVKPSETLSLTCTVSGGSISSSSYYWGWIRQPPGKGLEWIGSIYYSGSTYYNPSLKSRVTISVDTSKNQFSLKLSSVTAADTAVYYCARGSPTWLRDYYMDVWGKGTTVTVSS
VL: B9 VL with M4L, V91Y, A92N, N93A, Y94F, R96P
notes: IgG
